Test results as given in patent US20200339702A1 (ULTRAHUMAN THIRTEEN, published 2020).
Where a chain is given by its changes, count along the chain named. Names and notes keep the numbering of the source.

Assays:
[1] = biological target: T1, human ERBB3 His tagged, monomeric (human, UniProt P21860 20-643, biotinylated in the Alphascreen assays (sites not given)); assay: SPR (Biacore), captured IgG, monomeric ERBB3-His analyte
T1 construct: Used unbiotinylated as Biacore analyte and biotinylated in Alphascreen; treated as one molecule; also called human ERBB3-His (Acrobiosystems); biotinylated monomeric human ERBB3
Method: (§1) Affinity (KD) of purified IgGs was determined via SPR with antigen in-solution on a Biacore® 3000 (GE). A mouse anti-human antibody (CH1 specific) was immobilized on a CM5 Sensor Chip to a level of 2000 RU in acetate buffer at pH 4.5 using amine coupling following the Wizard instructions for two channels. One channel was used for background signal correction. The standard running buffer HBS-EP pH 7.4 was used. Regeneration was performed with a single injection of 10 μl of 10 mM Glycine at pH 1.5 at […]. IgG samples were injected for 2 minutes at 50 nM at 30 μl/min followed by an off-rate of 60 seconds. The monomeric antigen (human ERBB3 His tagged or rhesus monkey ERBB3 His tag) was injected in two fold serial dilutions from 3 nM down to 0.2 nM, for 2 minutes at 30 μl/min followed by an off-rate of 300 seconds. The obtained sensorgrams were analysed using the Biacore® 3000 evaluation (BlAevaluation) software. The KD was calculated by simultaneous fitting of the association and dissociation phases to a 1:1 Langmuir binding model.
(§2) Biacore® analyses of binding affinity were performed for all IgGs to solution-phase, monomeric human and rhesus ERBB3 proteins.

[2] = biological target: T2, rhesus monkey ERBB3 His tag, monomeric (rhesus monkey (Macaca mulatta), UniProt P21860 20-643 (human entry), limits assumed); assay: as above
T2 chain: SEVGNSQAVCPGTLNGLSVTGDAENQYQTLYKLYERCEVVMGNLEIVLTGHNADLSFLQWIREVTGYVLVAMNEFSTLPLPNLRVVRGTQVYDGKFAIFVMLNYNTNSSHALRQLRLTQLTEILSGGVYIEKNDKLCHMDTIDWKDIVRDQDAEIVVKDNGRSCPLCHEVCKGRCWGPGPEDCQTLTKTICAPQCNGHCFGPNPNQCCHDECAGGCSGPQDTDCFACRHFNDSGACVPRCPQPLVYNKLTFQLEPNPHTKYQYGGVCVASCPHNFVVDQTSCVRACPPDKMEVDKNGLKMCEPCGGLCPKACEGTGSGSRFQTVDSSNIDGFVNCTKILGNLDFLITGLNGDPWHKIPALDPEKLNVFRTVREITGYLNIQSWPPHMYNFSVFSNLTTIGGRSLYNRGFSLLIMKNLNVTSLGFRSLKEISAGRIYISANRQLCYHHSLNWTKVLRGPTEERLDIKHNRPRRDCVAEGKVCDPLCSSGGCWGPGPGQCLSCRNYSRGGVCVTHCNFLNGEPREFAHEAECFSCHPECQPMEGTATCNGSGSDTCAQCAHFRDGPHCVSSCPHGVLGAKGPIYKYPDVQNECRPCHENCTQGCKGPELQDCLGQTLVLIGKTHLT
Method: as §1, §2

[3] = biological target: T3, human ERBB3 on transiently transfected HEK-293 cells (human, UniProt P21860 20-1342); assay: flow cytometry, human ERBB3-transfected HEK-293
T3 construct: also called human ERBB3+ HEK-293 cells
Method: (§3) Purified IgGs were tested in FACs for binding to human and rhesus monkey ERBB3 expressed on transiently transfected HEK-293 cells and HEK-293 wild-type cells. The IgG samples were titrated in three-fold serial dilutions starting at 500 nM to 0.008 nM. Binding of IgGs was detected with a mouse anti-human IgG conjugated to FITC. Results were analyzed by examining the Mean Fluorescence Intensity (MFI) of 10000 cells per sample in the BL-1 channel detector of a flow cytometer (Attune™ NxT Acoustic Focusing Cytometer, Invitrogen/ThermoFisher Scientific).
(§4) Antibodies to ERBB3 were analysed for concentration-dependent binding at the cell surface via flow cytometry. HEK-293 cells were transiently transfected with either human or rhesus ERBB3 full-length cDNAs. Anti-ERBB3 IgGs and an isotype control were then all tested in IgG1null format, over a concentration range of 500-0.008 nM for binding to human (FIG. 5A) and rhesus (FIG. 5B) transfected cells.

[4] = biological target: T4, rhesus ERBB3 on transiently transfected HEK-293 cells (rhesus monkey (Macaca mulatta), UniProt P21860 20-1342 (human entry)); assay: flow cytometry, rhesus ERBB3-transfected HEK-293
T4 construct: also called rhesus ERBB3+ HEK-293 cells
T4 chain: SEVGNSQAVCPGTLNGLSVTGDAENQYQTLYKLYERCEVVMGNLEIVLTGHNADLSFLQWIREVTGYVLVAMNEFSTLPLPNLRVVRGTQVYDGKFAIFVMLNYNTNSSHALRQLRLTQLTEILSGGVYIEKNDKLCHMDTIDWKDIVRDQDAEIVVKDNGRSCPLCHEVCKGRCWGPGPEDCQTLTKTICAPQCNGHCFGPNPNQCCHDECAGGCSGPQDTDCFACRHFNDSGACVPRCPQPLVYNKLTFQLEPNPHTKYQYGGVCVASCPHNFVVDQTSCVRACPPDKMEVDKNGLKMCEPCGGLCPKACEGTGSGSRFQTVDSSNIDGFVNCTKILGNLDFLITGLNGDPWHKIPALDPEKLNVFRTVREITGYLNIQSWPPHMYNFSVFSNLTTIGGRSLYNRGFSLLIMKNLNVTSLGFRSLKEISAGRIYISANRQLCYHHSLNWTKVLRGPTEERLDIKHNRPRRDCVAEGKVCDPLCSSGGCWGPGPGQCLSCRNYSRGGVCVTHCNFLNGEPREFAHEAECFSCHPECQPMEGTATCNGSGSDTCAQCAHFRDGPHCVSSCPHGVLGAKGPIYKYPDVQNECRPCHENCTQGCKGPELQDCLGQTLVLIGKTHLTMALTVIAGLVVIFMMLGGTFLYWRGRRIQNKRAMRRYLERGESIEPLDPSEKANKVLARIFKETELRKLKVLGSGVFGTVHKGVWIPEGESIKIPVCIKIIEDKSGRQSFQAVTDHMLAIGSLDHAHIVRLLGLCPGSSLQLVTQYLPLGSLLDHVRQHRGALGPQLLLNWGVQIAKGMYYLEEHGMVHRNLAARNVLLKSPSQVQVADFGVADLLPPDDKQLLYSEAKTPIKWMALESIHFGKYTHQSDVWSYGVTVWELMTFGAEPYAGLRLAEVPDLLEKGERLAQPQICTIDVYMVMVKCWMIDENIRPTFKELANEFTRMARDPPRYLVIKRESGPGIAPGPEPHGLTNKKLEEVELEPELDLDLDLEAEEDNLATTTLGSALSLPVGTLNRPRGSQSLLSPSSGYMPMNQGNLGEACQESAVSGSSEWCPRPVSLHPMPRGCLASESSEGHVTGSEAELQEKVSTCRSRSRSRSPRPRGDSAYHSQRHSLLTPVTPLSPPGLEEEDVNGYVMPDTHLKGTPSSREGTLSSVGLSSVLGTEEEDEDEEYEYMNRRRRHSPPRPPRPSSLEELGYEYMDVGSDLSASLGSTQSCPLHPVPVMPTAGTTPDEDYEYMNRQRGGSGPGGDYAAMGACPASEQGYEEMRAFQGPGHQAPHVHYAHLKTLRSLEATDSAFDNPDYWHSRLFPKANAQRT
Method: as §3, §4

[5] = biological target: T1, human ERBB3 His tagged, monomeric; assay: SPR (Biacore)
Method: as §1

[6] = biological target: T2, rhesus monkey ERBB3 His tag, monomeric; assay: SPR (Biacore)
Method: as §1

human insulin = biological target: T5, human insulin (human, UniProt P01308 25-54; P01308 90-110, limits assumed); assay: polyreactivity ELISA on human insulin, score
T5 construct: Off-target protein in the development risk (polyreactivity) ELISA
T5 sequence (P01308 25-54 limits assumed, chain 1 of 2): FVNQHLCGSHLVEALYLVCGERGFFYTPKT
T5 sequence (P01308 90-110 limits assumed, chain 2 of 2): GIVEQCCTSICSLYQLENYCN

[7] = biological target: T6, human ERBB3 human Fc tagged recombinant protein (human, UniProt P21860 20-643); assay: direct binding ELISA on coated human ERBB3-Fc, IgG1 titrated
T6 construct: also called human ERBB3-Fc; huERBB3
Method: (§5) Binding and cross-reactivity of the lead panel to the recombinant proteins was initially assessed by binding ELISA. The human ERBB3 human Fc tagged recombinant protein and the rhesus monkey ERBB3 human Fc tagged recombinant protein were coated to the surface of MaxiSorp™ flat-bottom 96 well plate at 1 μg/ml. The purified IgG samples were titrated in two fold serial dilutions starting from 500 nM to 0.008 nM and allowed to bind to the coated antigens. The Fabs were detected using mouse anti-c-myc antibody followed by donkey anti-mouse IgG conjugated to horseradish peroxidase. The IgGs were detected using the mouse anti-human IgG conjugated to horseradish peroxidase. Binding signals were visualized with 3,3′,5,5′-Tetramethylbenzidine Substrate Solution (TMB) and the absorbance measured at 450 nm.

[8] = biological target: T1, human ERBB3 His tagged, monomeric; assay: Alphascreen competition, solution phase; competitor h24C05 IgG1
[9] = biological target: T4, rhesus ERBB3 on transiently transfected …; assay: flow cytometry, rhesus ERBB3-transfected HEK-293 cells, IgG1 titrated
Method: as §3

[10] = biological target: T7, rhesus monkey ERBB3 human Fc tagged recombinant protein (rhesus monkey (Macaca mulatta), UniProt P21860 20-643 (human entry), limits assumed); assay: direct binding ELISA on coated rhesus ERBB3-Fc, IgG1 titrated
T7 construct: also called rhesus ERBB3-Fc; rhERBB3
T7 chain: T2 chain
Method: as §5

[11] = biological target: T1, human ERBB3 His tagged, monomeric; assay: Alphascreen competition in solution, competitor h24C05 IgG1null, biotinylated human ERBB3-His
Method: The AlphaScreen assay (Perkin Elmer) was performed in a 25 μl final volume in 384-well white microtiter plates (Greiner). The reaction buffer contained 1×PBS pH 7.3 (Oxoid, Cat. nr. BR0014G) and 0.05% (v/v) Tween® 20 (Sigma, Cat. nr. P9416). Purified IgG samples were titrated in three fold serial dilutions starting at 100 nM final concentration and incubated with biotinylated human ERBB3-His (Acrobiosystems) at 1 nM final concentration for 20 minutes at room temperature. The parental IgG and the anti-human IgG1 Acceptor beads at were added and the mix was incubated for 1 hour at room temperature. Followed by addition of the Streptavidin Donor beads and incubation for 30 minutes at room temperature. The emission of light was measured in the EnVision multilabel plate reader (Perkin Elmer) and analysed using the EnVision manager software. Values were reported as Counts Per Second (CPS) and corrected for crosstalk.

B1: MH3 IgG1null (antibody, V domains shown)
VH: QVQLVESGGGLVKPGGSLRLSCAASGFTFSDYSMSWIRQAPGKGLEWVSTISDSGSTIYYADSVKGRFTISRDNAKNSLYLQMNSLRAEDTAVYYCAREWGDYDGFDFWGQGTLVTVSS
VL: DIQMTQSPSSLSASVGDRVTITCRASQSISSYLSWYQQKPGKAPKLLIYAASSLQSGVPSRFSGSGSGTDFTLTISSLQPEDFATYYCLQYDSTPLTFGGGTKVEIK
notes: Designer (Maximally Humanized) clone; Human IgG1null and human Ckappa
[1]
  Kd: 0.85 nM
  koff: 0.0065 s⁻¹
  kon: 7.6e+06 M⁻¹ s⁻¹
[2]
  Kd: 0.63 nM
  koff: 0.011 s⁻¹
  kon: 1.8e+07 M⁻¹ s⁻¹
[3]
  maximum MFI, fold over isotype control background: > 20 fold
[4]
  maximum MFI, fold over isotype control background: > 20 fold
[5]
  fold reduction in binding affinity against clone MH2: ~3 fold
[6]
  fold reduction in binding affinity against clone MH2: ~3 fold

B2: h24C05 IgG1 (antibody, V domains shown)
VH: B1 VH with S33A, S54G, S56T, T57Y, I58T, A61P, S63N, F108Y
VL: B1 VL with S28E, S31G, Y36F, L46S, S53T, Q55D, T94Y, L96Y
notes: Human IgG1 and human Ckappa; also called humanized 24C05
Human insulin
  binding result: no binding
[7]
  EC50 (read off the curve): ~0.1 nM
[8]
  IC50: 1.25 nM
[9]
  EC50 (read off the curve): ~0.2 nM
[10]
  EC50 (read off the curve): ~0.1 nM

B3: h24C05 IgG1null (antibody, V domains shown)
VH: B1 VH with S33A, S54G, S56T, T57Y, I58T, A61P, S63N, F108Y
VL: B1 VL with S28E, S31G, Y36F, L46S, S53T, Q55D, T94Y, L96Y
notes: Human IgG1null (L234A, L235A, G237A) and human Ckappa; also called humanized 24C05
[1]
  Kd: 0.039 nM
  koff: 0.00096 s⁻¹
  kon: 2.5e+07 M⁻¹ s⁻¹
[2]
  Kd: 0.18 nM
  koff: 0.00074 s⁻¹
  kon: 4.1e+06 M⁻¹ s⁻¹
[3]
  maximum MFI, fold over isotype control background: > 20 fold
[11]
  IC50 (read off the curve): ~5 nM
[4]
  maximum MFI, fold over isotype control background: > 20 fold
